These results are taken from patent publication US20220204643A1 (published 2022).

The target of experiment [1] is T1, proliferating cell nuclear antigen, transcript variant 1 (human, UniProt P12004 1-261).
T1 construct: also called PCNA

In a further experiment the target is T2, phosducin like (human, UniProt Q13371 2-301).
T2 construct: also called PDCL
T2 sequence: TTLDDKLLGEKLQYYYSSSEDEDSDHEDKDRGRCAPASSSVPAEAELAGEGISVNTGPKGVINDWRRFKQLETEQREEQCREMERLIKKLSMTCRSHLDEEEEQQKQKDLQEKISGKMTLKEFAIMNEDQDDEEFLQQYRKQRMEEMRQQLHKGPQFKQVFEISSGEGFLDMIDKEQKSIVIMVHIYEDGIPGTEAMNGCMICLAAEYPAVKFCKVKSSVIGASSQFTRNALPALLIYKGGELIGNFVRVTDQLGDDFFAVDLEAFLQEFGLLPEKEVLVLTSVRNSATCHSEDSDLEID

A further experiment has as its target T3, cancer/testis antigen 1A (human, UniProt P78358 1-180).
T3 construct: also called CTAG1A

The target in the next experiment is T4, G antigen 2A (human, UniProt Q6NT46 1-116).
T4 construct: also called GAGE2A
T4 sequence: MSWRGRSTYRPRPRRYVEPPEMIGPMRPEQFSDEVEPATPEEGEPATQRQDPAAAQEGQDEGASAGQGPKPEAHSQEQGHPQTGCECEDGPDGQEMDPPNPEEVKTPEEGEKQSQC

Experiment [2] deals with T5, G protein-coupled receptor 4 (human, UniProt P46093 1-362).
T5 construct: also called GPR4
T5 sequence (P46093 whole entry): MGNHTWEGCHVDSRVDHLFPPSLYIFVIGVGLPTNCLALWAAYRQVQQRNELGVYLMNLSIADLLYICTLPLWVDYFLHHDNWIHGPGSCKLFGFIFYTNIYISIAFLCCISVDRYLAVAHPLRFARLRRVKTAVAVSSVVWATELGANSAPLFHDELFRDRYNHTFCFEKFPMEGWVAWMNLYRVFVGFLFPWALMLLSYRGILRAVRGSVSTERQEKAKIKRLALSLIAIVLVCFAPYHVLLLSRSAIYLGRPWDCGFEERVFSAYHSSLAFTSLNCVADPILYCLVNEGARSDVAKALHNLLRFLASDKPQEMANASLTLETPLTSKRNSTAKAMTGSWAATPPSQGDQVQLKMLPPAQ

A further experiment has as its target T6, Dexd-box helicase 52 (human, UniProt Q9Y2R4 1-599).
T6 construct: also called DDX52
T6 sequence: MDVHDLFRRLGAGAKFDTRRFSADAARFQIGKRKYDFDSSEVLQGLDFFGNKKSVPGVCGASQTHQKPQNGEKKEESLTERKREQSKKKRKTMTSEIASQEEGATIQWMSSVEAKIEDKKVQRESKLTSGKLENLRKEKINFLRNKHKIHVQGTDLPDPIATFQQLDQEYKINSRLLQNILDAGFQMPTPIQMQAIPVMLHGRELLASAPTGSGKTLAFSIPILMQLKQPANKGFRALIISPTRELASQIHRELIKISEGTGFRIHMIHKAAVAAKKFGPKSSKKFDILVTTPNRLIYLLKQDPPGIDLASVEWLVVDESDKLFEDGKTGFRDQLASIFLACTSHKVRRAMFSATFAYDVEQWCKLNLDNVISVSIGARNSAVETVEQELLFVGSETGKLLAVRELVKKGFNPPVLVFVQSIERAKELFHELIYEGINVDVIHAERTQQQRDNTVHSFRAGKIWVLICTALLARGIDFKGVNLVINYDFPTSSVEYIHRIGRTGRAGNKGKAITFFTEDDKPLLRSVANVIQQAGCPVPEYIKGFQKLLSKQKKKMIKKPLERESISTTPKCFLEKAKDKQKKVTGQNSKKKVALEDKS

The target in experiment [3] is T7, JPX transcript, XIST activator (human).
T7 construct: on protein array
T7 chain: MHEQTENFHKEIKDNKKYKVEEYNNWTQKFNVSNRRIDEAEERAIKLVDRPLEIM
In words: protein array.

A further experiment deals with T8, LN608403.1_frag (human).
T8 construct: on protein array
T8 chain: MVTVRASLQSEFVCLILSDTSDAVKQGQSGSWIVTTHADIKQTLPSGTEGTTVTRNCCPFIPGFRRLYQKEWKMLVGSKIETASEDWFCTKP
In words: protein array.

Experiment [4] concerns the target T9, aarF domain containing kinase 5 (human, UniProt Q3MIX3 1-580).
T9 construct: also called ADCK5

Experiment [5] addresses BAF chromatin remodeling complex subunit BCL7C, transcript variant 2 (human, UniProt Q8WUZ0 1-217).
Experiment [6] concerns the target T10, phospholipase C delta 1, transcript variant 2 (human, UniProt P51178 1-756).
T10 construct: on protein array; also called PLCD1
T10 sequence: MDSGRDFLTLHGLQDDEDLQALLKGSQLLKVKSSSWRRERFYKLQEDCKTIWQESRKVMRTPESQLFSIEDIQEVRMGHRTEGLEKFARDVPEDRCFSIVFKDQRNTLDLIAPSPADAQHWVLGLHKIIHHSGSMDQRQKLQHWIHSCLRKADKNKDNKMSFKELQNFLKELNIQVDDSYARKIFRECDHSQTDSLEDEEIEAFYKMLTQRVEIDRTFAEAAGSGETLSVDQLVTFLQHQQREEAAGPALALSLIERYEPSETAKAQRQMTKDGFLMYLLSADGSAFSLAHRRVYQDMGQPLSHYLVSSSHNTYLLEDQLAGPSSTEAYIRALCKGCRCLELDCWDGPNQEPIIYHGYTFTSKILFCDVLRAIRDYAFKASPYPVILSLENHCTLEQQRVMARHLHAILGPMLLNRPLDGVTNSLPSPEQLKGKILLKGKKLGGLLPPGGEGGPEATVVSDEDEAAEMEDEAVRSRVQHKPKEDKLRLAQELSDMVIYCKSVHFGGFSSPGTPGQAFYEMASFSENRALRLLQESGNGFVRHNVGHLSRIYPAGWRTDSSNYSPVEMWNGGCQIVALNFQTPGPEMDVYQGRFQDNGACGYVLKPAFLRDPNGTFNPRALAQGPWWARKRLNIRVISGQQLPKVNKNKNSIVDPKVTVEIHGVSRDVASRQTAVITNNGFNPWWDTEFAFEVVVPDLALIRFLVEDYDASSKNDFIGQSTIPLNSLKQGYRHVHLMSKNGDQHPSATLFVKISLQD
Nature of the experiment: protein array.

Experiment [7] addresses T11, zinc finger protein 326, transcript variant 1 (human, UniProt Q5BKZ1 1-582).
T11 construct: on protein array; also called ZNF326
T11 sequence: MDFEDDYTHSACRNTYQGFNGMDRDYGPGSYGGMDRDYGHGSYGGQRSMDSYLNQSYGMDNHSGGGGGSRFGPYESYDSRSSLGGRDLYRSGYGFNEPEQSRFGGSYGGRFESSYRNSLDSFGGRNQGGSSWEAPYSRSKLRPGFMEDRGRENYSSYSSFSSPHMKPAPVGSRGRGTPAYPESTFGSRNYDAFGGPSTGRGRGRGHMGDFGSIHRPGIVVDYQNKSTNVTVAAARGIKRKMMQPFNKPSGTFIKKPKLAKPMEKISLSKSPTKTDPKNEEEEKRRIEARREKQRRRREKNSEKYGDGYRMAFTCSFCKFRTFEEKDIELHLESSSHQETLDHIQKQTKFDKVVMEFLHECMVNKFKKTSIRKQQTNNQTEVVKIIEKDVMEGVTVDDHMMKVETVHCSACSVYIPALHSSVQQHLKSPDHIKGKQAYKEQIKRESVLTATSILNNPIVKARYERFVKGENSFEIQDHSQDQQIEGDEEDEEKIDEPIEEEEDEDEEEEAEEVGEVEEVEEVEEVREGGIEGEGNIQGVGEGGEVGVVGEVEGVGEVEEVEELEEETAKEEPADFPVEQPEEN
In words: protein array.

The target in experiment [8] is T12, PNMA family member 5, transcript variant 2 (human, UniProt Q96PV4 1-448).
T12 construct: on protein array; also called PNMA5
T12 sequence (Q96PV4 other isoform, or with tags, fused parts or gaps mutant limits assumed): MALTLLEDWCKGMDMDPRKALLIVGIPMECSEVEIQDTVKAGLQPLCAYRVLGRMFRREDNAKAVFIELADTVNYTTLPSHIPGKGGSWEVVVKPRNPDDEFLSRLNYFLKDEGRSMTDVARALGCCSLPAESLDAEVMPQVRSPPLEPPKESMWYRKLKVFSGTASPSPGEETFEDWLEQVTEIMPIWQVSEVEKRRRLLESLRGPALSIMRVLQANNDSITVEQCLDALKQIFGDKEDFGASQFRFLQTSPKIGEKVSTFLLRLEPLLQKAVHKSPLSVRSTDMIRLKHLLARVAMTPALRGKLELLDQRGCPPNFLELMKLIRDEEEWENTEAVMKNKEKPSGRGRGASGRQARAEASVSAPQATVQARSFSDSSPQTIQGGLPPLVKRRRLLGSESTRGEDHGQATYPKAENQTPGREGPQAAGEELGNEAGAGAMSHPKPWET
Nature of the experiment: protein array.

In experiment [9] the target is T13, UTP6 small subunit processome component (human, UniProt Q9NYH9 1-597).
T13 sequence: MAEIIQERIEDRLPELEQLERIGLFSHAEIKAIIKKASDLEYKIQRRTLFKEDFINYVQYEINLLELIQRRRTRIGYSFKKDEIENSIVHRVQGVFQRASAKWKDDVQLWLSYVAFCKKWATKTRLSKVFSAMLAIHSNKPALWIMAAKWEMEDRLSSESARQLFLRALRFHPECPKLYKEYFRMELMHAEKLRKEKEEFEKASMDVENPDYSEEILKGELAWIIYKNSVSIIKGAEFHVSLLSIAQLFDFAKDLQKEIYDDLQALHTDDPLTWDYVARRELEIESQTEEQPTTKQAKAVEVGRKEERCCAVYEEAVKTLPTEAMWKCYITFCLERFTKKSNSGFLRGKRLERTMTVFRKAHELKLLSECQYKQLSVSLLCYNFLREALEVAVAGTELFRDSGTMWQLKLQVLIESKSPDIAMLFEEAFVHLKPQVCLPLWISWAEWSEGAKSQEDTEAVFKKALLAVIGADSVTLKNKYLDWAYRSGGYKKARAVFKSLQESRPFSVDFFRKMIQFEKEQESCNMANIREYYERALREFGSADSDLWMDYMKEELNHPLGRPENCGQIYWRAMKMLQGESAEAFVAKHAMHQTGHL

T1 sequence (P12004 whole entry, change not shown): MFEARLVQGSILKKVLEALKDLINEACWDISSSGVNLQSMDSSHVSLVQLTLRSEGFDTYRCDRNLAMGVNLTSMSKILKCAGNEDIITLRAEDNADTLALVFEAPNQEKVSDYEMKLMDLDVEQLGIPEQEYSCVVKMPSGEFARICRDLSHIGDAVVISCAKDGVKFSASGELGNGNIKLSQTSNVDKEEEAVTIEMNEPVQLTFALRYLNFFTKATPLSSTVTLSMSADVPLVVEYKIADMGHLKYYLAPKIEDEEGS
T3 sequence (P78358 whole entry): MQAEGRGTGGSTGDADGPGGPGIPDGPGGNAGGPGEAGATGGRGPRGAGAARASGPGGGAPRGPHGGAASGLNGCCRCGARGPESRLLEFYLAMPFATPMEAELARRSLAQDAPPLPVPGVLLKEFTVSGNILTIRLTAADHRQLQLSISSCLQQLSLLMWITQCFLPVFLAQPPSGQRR
T9 sequence (Q3MIX3 other isoform, or with tags, fused parts or gaps limits assumed): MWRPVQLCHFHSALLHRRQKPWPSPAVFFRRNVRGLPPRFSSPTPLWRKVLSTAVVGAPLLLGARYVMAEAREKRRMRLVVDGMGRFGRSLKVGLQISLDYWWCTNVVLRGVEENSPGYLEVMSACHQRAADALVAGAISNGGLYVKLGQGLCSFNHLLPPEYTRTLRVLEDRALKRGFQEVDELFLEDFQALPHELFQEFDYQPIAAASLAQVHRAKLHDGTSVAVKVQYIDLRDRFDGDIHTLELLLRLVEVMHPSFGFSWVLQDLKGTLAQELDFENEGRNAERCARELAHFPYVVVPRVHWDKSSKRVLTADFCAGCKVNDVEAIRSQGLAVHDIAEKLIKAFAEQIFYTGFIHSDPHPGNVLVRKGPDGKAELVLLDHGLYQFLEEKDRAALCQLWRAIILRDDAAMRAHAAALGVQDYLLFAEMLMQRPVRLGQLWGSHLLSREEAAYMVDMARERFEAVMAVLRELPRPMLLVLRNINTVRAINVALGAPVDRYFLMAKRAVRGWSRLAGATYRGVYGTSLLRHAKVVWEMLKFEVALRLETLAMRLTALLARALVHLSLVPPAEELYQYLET

B1: TTHY1002 (antibody, V domains shown)
VH: EVQVVESGGGLGQPGGSLRLSCAASGFTFSSYSMNWVRQAPGKGLEWVSYISSSSSTKYYADSVKGRFTISRDNAKKSLYLQMNSLRDEDTAVYYCASPVRPWGQGTLVTVSS
VL: EIVMTQSPATLSVSPGERATLSCRASQSVSSNLAWYQQKPGQAPRLLIYGASTRATGIPARFSGSGSGTEFTLTISSLQSEDFAIYYCQQYNSWPAFGGGTKVEIK
For the molecule B1, the binding result in experiment [1] is reported as “binds”.

B2: TTES1007 (antibody, V domains shown)
VH: QITLKESGPTLVKPTQTLTLTCTFSGFSLTTTGVGVGWIRQPPGKALEWLALIYWDDDKRYSPSLKSRLIITKDTSKNQVVLTMTNMDPVDTATYYCAHRFGRGVSYYYYGMDVWGQGTTVTVSS
VL: not shown
As for B2, the binding result in the experiment with phosducin like is on record as “binds”.

B3: TTHY1004 (antibody, V domains shown)
VH: PVQLQESGPGLVKPSQTLSLTCTVSGGSISSGTYYWSWIRQPAGKGLEWIGRIYASGSTNYNPSLKSRVTISVDTSKNQFSLKLTSVTAADTAVYYCARYSGSYPLGFDYWGQGTLVTVSS
VL: DIQMTQSPSSLSASVGDRVTITCRASQSISTYLNWYQQKPGMAPKLLIYAASTLQSGVPSRFSGSGSATDYTLTISSLQPEDFATYYCQQSYNTPLTFGGGTKVDIKR
For the molecule B3, the binding result with cancer/testis antigen 1A is reported as “binds”.

B4: TTES1012 (antibody, V domains shown)
VH: EVQLVESGGGLVQPGGSLRLSCAASGFTFSSYWMTWVRQAPGKGLEWVANIKQDGSEKYYVDSVKGRFTISRDNSKNSLYLQMNSLRAEDTAVYYCARAGYDLFGWFDPWGQGTLVTVSS
VL: SYELTQPPSVSVSPGQTARITCSGDALPKQYAYWYQQKPGQAPVLVIYKDSERPSGIPERFSGSSSGTTVTLTISGVQAEDEADYYCQSADSSGTYVFGTGTKVTVLG
Turning to B4, the binding result with G antigen 2A is listed as “binds”.

B5: TTES1008 (antibody, V domains shown)
VH: QVQLVESGGGVVQPGRSLRLSCAASGFIFSSYGMHWVRQAPGKGLEWVAVISYDGSNKYYADSVKGRFTISRDKSKNTLHLQMNSLRAEDTAVYYCAKDSGSNDDMDVWGKGTTVTVSS
VL: QSVLTQPPSVSAAPGQKVTISCSGSSSNIGNNYVSWYQQLPGTAPKLLIYDNNKRPSGIPDRFSGSKSGTSATLGITGLQTGDEADYYCGTWDSSLSAGVFGTGTKVTVLG
For B5, the binding result (in experiment [2]; with Dexd-box helicase 52) was “binds” throughout.

B6: TBRE1045 (antibody, V domains shown)
VH: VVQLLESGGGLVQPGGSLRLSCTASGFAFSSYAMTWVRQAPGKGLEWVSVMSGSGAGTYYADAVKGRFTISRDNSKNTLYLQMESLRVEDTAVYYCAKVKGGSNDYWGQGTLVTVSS
VL: PYVLTQPPSVSVAPGQTARITCGGNNIGSKSVHWYQQKPGQAPVMVVYADRERPSGIPERLSGSNFGNTATLTISRVEAGDEADYYCQVWDSNNDHREVFGGGTKLTVLG
notes: VH/VL only
Regarding B6, the binding result (in [3]; with LN608403.1_frag) was “binds” in each case.

B7: TTES1009 (antibody, V domains shown)
VH: EVQLVESGGGLVQPGGSLRLSCAASGFTFSSYEMNWVRQAPGKGLEWVSYISSSGSTIYYADSVKGRFTISRDNAKNSLYLQMNSLRAEDTAVYYCARRGFYYYYGMDVWGQGTTVTVSS
VL: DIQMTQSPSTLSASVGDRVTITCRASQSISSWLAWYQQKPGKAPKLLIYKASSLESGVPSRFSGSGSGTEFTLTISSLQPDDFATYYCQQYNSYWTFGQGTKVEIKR
Regarding B7, in experiment [4], the binding result is recorded as “binds”.

B8: TTHY1003 (antibody, V domains shown)
VH: QVQLVQSGAEMKKPGTSVKVSCRTSGYIFTGSFMHWVRQAPAQGLEWMGWINPKTGATYYTEKFKGRVTLTRDTSINTAYMEMTSLRSDDTAVYYCARGFCDLPACYPVPQYNWFDPWGQGTLVTVSS
VL: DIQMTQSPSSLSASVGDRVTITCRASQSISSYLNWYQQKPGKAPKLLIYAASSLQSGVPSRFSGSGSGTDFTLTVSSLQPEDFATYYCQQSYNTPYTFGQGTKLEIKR
As to B8, the binding result in [5] is “binds”.

B9: TBRE1039 (antibody, V domains shown)
VH: PVQLVQSGAEVKKPGSSVKVSCKASGGTFSSYAISWVRQAPGQGLEWMGGIIPIFGTANYAQKFQGRVTITADESTSTAYMELSSLRSEDTAVYYCARENWNSAGTTEWFDPWGQGTLVTVSS
VL: PYVLTQPPSVSVAPGKTARITCGGNNIGSKSVHWYQQKPGQAPVLVIYYDSDRPSGIPERFSGSNSGNTATLTISRVEAGDEADYYCQVWDSSSDHYVVFGGGTKLTVLG
notes: VH/VL only
As for B9, the binding result in experiment [6], in [7] and in [8] was “binds” in each case.

B10: TUCE1005 (antibody, V domains shown)
VH: QVQLQESGPGLVKPSETLSLTCTVSGGSISSYYWSWIRQPAGKGLEWIGRIYTSGSTNYNPSLKSRVTMSVDTSKNQFSLKMSSVTAADTAVYYCARGELLFDHWGQGTLVTVSS
VL: not shown
As to B10, in experiment [9], the binding result was “binds”.
